# Molecular target: IscS fused with the bait protein (pBT-IscS, pJTU3618) (E. coli), P0A6B7
# Assay: two-hybrid; BacterioMatch II bacterial two-hybrid; IscS on pBT (bait), Dpt proteins on pTRG (target); reporter strain E. coli XL1-Blue MRF' Kan; colonies counted on Selective Screening Medium with 5 mM 3-AT against nonselective medium, 24 h at 37°C
# Conditions: remark: other sources report otherwise
# Sequence of IscS fused with the bait protein (pBT-IscS, pJTU3618) (E. coli), P0A6B7 (P0A6B7 whole entry, the tested form may be a part): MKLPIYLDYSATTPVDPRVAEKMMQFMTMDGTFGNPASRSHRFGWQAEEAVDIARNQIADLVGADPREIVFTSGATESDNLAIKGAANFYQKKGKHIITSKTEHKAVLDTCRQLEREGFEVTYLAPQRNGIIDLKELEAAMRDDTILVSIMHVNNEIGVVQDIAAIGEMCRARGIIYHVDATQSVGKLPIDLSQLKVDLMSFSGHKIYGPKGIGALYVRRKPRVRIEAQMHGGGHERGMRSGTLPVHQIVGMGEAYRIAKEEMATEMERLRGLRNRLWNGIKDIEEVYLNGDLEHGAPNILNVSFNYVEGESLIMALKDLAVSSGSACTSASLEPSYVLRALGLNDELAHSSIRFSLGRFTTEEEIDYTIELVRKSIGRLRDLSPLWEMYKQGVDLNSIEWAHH
binder,measurement,value
"DptC fused with the target protein (pTRG-DptC, pJTU3610), E2D677 1-544 (natural protein) MSKLVQAYDLAEYEDFINQEQFAGRPLAEYVAEVQRIYCADKRPWVIGYSGGKDSSAVITLVYLALLGLPPEMRSKDVFIVSSDTLVETPVVVDLIKKTMLQIEAGAKRNGLPITQHAVTPKTNETFWVNLLGKGYPAPTRSFRWCTERMKINPVSDFIKDKVSQFDEVIVVLGSRSSESASRAQVIAKHKIDGSRLARHTTLANAFIYTPIDTWDVEDVWKLLRGAFRYAPEDIDEWESPWGGNNRPLWTLYMDSSAQGECPLVIDESTPSCGNSRFGCWTCTVVTKDKAMESLIKNGEEWMSPLLKYRDLLAFTTDPANKDTYRNYKRRTGKVSYQYAKDGEDRSAERKHVPGPYWLKYRQQWLKDLLEIERDLNAQGHTITLITQPELHAIRQEWLKDPNEPDWHDTLPEIYREVYQQDLNWVVDDQSRFDASDADLLAQITQGFDVVPEMVMKLIELETSMEGLSRRQGIFDKLGTILKQDWGSLEEIQQQQATLQKRNDRDIHQDEVEKLEAELQTLQRRIIDAGESSVLIDEENERAH",surviving cells on 3AT,2%

# From article PMC3519819
